Measured values: publication PMC13602928

Experiments:
[1] = target: stripped Anabaena flos-aquae (Ana) gas vesicles (GV shell, native GvpC removed) (Anabaena flos-aquae) (UniProt P10397)
[2] = target: stripped Anabaena flos-aquae (Ana) gas vesicles (GV shell, native GvpC removed) (Anabaena flos-aquae) (UniProt P10397); remark: listed apart in the source

Sequence of UniProt P10397 (P10397 whole entry): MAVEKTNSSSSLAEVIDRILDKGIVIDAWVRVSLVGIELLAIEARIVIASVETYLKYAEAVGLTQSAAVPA

time course of the nonlinear ultrasound signal of UReKA1 GVs after PKA addition; time to maximal contrast (signal first detectable after 2-3 h) [1] [h] | midpoint collapse pressure of UReKA1 GVs (pressurized absorbance spectroscopy), after PKA phosphorylation [2] [kPa] | nonlinear (xAM) ultrasound signal of purified UReKA1 GVs at 350 kPa, with PKA against without PKA [2] [fold] | time course of the nonlinear ultrasound signal of UReKA2 GVs after PKA addition; time to maximal contrast (signal first detectable after 2-3 h) [1] [h] | midpoint collapse pressure of UReKA2 GVs (pressurized absorbance spectroscopy), after PKA phosphorylation [2] [kPa] | nonlinear (xAM) ultrasound signal of purified UReKA2 GVs at 489 kPa, with PKA against without PKA [2] [fold] | Substance
8 | 227 | 4.5 | – | – | – | phosphorylated UReKA1 GvpC (pThr60)
– | – | – | 12 | 283 | 12.9 | phosphorylated UReKA2 GvpC (pThr81)
